According to publication PMC7335780, “Role of folding kinetics of secondary structures in telomeric G-overhangs in the regulation of telomere maintenance in Saccharomyces cerevisiae”:

Key:
Cdc13-DBD [1] = molecular target: T1, Cdc13-DBD (Saccharomyces cerevisiae (strain SCY325), UniProt P32797 497-694); test: EMSA; freshly boiled probe, protein titration; EMSA: 1x K+ buffer (20 mM potassium phosphate pH 7.0, 135 mM KCl, 9% glycerol), 10 min at 22 C/RT, 6% PAGE in 0.5x TBE; NMR in K+TD (K+ buffer + 0.25% Triton X-100, 1 mM DTT); conditions: protein: recombinant; tags: GST tag (pGEX-6T-2) removed with HRV 3C protease; vector-derived residues may remain; label: 5'-32P; single strand when freshly boiled; G-hairpin after long folding
T1 sequence: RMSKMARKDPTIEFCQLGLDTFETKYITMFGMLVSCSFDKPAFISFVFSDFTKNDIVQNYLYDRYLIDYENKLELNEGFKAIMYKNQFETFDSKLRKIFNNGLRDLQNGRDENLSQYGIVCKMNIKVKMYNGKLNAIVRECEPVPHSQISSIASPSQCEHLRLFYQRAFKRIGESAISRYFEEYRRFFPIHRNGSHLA

Cdc13-DBD [2] = molecular target: T1, Cdc13-DBD; test: competition; competitor in water, 50 or 75 nM, vs 32P-ONG11; EMSA: 1x K+ buffer (20 mM potassium phosphate pH 7.0, 135 mM KCl, 9% glycerol), 10 min at 22 C/RT, 6% PAGE in 0.5x TBE; NMR in K+TD (K+ buffer + 0.25% Triton X-100, 1 mM DTT); conditions: protein: recombinant, tags: GST tag (pGEX-6T-2) removed with HRV 3C protease, vector-derived residues may remain, unfolded single strand

GTGTGGGTGTG (ssDNA, 5' phosphate) [ONG11 5'-32P probe]: binds (Cdc13-DBD [1]).

GTGTGGGTGTG (ssDNA) [ONG11 unfolded (H2O or freshly boiled)]: binds (Cdc13-DBD [2]).

GTGTGGGTGTGGTGTGGGTGTGGTGTGGGTGTG (ssDNA) [ONG1 unfolded (H2O)]: binds (Cdc13-DBD [2]; label: none).
